Key:
[1] = target: T1, Recombinant ERα-LBD (human, UniProt P03372 302-595); experiment: SPR
T1 sequence (looked up): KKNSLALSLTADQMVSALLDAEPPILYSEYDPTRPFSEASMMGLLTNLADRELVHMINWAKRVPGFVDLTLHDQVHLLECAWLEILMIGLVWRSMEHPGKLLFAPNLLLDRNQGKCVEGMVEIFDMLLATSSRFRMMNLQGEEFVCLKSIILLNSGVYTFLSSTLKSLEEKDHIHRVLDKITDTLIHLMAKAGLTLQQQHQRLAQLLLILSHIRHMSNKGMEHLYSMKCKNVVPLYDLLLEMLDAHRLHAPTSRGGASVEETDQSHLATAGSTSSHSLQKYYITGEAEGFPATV

[2] = target: T2, Recombinant AR-LBD (human, UniProt P10275 672-920); experiment: SPR
T2 sequence (looked up): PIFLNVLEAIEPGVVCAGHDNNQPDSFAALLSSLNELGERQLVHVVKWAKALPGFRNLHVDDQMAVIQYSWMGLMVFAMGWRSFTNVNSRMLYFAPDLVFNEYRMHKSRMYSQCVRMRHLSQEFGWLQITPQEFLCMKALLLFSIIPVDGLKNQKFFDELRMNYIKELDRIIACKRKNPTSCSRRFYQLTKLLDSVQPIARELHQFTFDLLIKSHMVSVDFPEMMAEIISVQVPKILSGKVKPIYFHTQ

binding result [1]: binds | binding result [2]: binds
Binder: KPEWPAAELLLSLLGRLLVHQFSNKSTE [human NIPBL-C2^WT peptide]

Reference: publication PMC11661173 (bioRxiv, 2025)
